Assays:
[1] = target: ACE-2-Fc fusion protein (human) (UniProt Q9BYF1); assay: BLI
[2] = target: SARS-CoV-2 spike wt (in-house) (SARS-CoV-2) (UniProt P0DTC2); assay: ELISA

UniProt Q9BYF1, sequence (Q9BYF1 18-740): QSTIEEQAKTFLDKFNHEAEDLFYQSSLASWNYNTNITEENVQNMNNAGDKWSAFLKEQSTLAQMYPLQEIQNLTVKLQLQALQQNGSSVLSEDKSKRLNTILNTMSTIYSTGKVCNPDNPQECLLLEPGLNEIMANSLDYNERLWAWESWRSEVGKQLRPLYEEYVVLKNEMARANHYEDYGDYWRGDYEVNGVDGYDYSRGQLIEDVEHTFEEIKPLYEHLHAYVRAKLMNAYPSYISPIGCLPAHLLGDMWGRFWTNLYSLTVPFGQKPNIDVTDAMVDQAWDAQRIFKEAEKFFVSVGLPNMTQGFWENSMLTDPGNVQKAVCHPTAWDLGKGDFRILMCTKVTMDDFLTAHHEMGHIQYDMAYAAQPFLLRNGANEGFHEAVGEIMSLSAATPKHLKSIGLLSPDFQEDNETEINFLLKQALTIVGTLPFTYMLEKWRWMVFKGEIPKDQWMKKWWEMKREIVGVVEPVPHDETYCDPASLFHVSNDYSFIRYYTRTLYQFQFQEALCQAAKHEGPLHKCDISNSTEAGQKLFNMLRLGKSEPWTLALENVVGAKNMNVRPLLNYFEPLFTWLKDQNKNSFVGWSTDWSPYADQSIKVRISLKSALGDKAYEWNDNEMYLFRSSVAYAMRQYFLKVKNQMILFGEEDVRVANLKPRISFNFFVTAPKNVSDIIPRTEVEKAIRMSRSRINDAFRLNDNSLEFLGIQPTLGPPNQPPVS

| Substance | Kd [1] [nM] | fold improvement of kdis compared to the wt [1] [fold] | koff [1] [s⁻¹] | kon [1] [M⁻¹ s⁻¹] | fold increase of binding after total IgG depletion of vaccinee plasma [2] [fold] |
| --- | --- | --- | --- | --- | --- |
| SARS-CoV-2 RBD Omicron BA.2 (domain or fragment) | 4.47 | 1.76 | 0.0032 | 716000 |  |
| SARS-CoV-2 RBD wt (domain or fragment) | 23.4 |  |  |  |  |
| native MBL from sera (from UniProt P11226 21-248) (natural protein) |  |  |  |  | 2.6 |
